Measurements: patent US20090208538A1 (ROCKEFELLER UNIVERSITY, published 2009)

Experiments:
[1] = target: T1, HLA-A*0201 (human); assay: iTopia affinity;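 also: peptide affinity for plate-bound HLA-A2 molecules (iTopia system), with ED50 derived from an eight-point serial peptide dilution series run under binding assay conditions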
T1 construct: also called HLA-A2.1; HLA A2.1

[2] = target: T1, HLA-A*0201; assay: iTopia off-rate;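 also: Half-life of peptide complexes with plate-bound HLA-A2, peptides loaded 18 h at 21 C, washed, then held at 37 C over several time points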
[3] = target: T1, HLA-A*0201; assay: iTopia net score;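 also: combined score from peptide binding, ED₅₀ and half-life of peptide complexes with plate-bound HLA-A2 molecules, computed by a proprietary formula in iTopia software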
[4] = target: T1, HLA-A*0201; assay: iTopia binding;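 also: each peptide tested for binding to HLA-A2 molecules immobilized on plates, using a commercial screening kit run per its supplied protocol and reagents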
[5] = target: HLA-A*2402 (human); assay: iTopia net score;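 also: iScore from iTopia software combining peptide binding, affinity over a dilution series and off-rate after warming to body temperature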
[6] = target: HLA-A*2402 (human); assay: iTopia off-rate
[7] = target: HLA-A*2402 (human); assay: iTopia affinity;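 also: peptide binding to HLA-A*2402 measured in iTopia kit format across eight serial peptide dilutions, ED50 derived from the resulting titration curve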

Binder	ED50 [1] [µM]	t1/2 [2]	iScore [3]	binding vs positive control [4] [%]	iScore [5]	t1/2 [6]	ED50 [7] [µM]
RGISLLHEV [cdr2 341-349 RGISLLHEV]	1	7	0.752	> 30			
LGATGAYRA [cdr2 237-245 LGATGAYRA]	10	1.2	0.13	> 30			
SLSHKAVQT [cdr2 373-381 SLSHKAVQT]	4	0.8	0.129	> 30			
VFAEKITSL [cdr2 176-184 VFAEKITSL]	5	0.4	0.106	> 30	0.446	0.78	0.26
LSLTETIEC [cdr2 113-121 LSLTETIEC]	0.95	0.51	0.187	> 30			
QSLLEEMFL [cdr2 288-296 QSLLEEMFL]	30	5.44	0.178	> 30			
LKSSGQGRR [cdr2 136-144 LKSSGQGRR]	16	2.38	0.176	> 30			
QAQLSLERQ [cdr2 206-214 QAQLSLERQ]	8.1	3.42	0.174	> 30			
TMEEEYGLV [cdr2 218-226 TMEEEYGLV]	6.3	1.27	0.166	> 30			
YLTKQVELL [cdr2 65-73 YLTKQVELL]	2	8.1	0.645	> 30	0.107	0.22	1.9
SQVEELKSS [cdr2 131-139 SQVEELKSS]	11	2.42	0.154	> 30			
EMFLTVPES [cdr2 293-301 EMFLTVPES]	17	1.38	0.15	> 30			
TMLQAQLSL [cdr2 203-211 TMLQAQLSL]	0.8	9.8	0.811	> 30	0.117	0.25	0.7
SLLEEMFLT [cdr2 289-297 SLLEEMFLT]	6	13.9	0.803	> 30			
VTMEEEYGL [cdr2 217-225 VTMEEEYGL]	2	6.5	0.528	> 30			
KILSLTETI [cdr2 111-119 KILSLTETI]	7	10.5	0.512	> 30	0.261	0.82	1.5
KLVPDSLYV [cdr2 273-281 KLVPDSLYV]	3	6.1	0.499	> 30			
AAAKDLTGV [cdr2 384-392 AAAKDLTGV]	3	6.5	0.469	> 30			
HLQSQVEEL [cdr2 128-136 HLQSQVEEL]	10	7.7	0.323	> 30			
GVNAQSEPV [cdr2 391-399 GVNAQSEPV]	10	6.4	0.292	> 30			
DSLSHKAVQ [cdr2 372-380 DSLSHKAVQ]	9	6.3	0.262	> 30			
FVYDHVFAE [cdr2 171-179 FVYDHVFAE]	10	5.5	0.282	> 30			
LASVNPEPV [cdr2 405-413 LASVNPEPV]	4	1.9	0.244	> 30			
TILSSLAGS (Position printed as 313-221) [cdr2 313-221 TILSSLAGS]	2	1.1	0.238	> 30			

Binder	ED50 [1] [µM]	t1/2 [2]	iScore [3]	binding vs positive control [4] [%]	iScore [5]	t1/2 [6]	ED50 [7] [µM]
MLQAQLSLE [cdr2 204-212 MLQAQLSLE]	5	5.1	0.235	> 30			
LYDLRQHFV [cdr2 164-172 LYDLRQHFV]	0.5	0.4	0.199	> 30	0.157	0.27	1.6
ASGWELASV [cdr2 400-408 ASGWELASV]	1	0.5	0.187	> 30			
CLQTNIDHL [cdr2 121-129 CLQTNIDHL]	20	2.4	0.176	> 30			
NIDHLQSQV [cdr2 125-133 NIDHLQSQV]	6	1.3	0.166	> 30			
QLAAELGKT [cdr2 29-37 QLAAELGKT]	20	1.4	0.15	> 30			
LVPDSLYVP [cdr2 274-282 LVPDSLYVP]	10	2.4	0.154	> 30			
KVYEQLDVT [cdr2 82-90 KVYEQLDVT]	8	1.3	0.139	> 30			
LFKEIFSCI [cdr2 425-433 LFKEIFSCI]					0.529	1.11	0.075
EYKALFKEI [cdr2 421-429 EYKALFKEI]					0.505	1.63	0.44
PFKEPSQSL [cdr2 282-290 PFKEPSQSL]					0.496	1.25	0.49
EYLTKQVEL [cdr2 64-72 EYLTKQVEL]					0.444	1.72	0.65
MYTTNQEQL [cdr2 52-60 MYTTNQEQL]					0.441	1.46	0.54
YKALFKEIF [cdr2 422-430 YKALFKEIF]					0.357	1.6	1.5
PFVNGVEKL [cdr2 266-274 PFVNGVEKL]					0.218	0.49	1.4
VKQRGISLL [cdr2 338-346 VKQRGISLL]					0.172	1.15	10
EQLQEIEYL [cdr2 58-66 EQLQEIEYL]					0.142	1.47	3.4
QYSALKVKY [cdr2 352-360 QYSALKVKY]					0.098	0.35	3.1
QHFVYDHVF [cdr2 169-177 QHFVYDHVF]					0.097	0.21	3.1
VEKLVPDSL [cdr2 271-279 VEKLVPDSL]					0.092	1.02	8.8
YDHVFAEKI [cdr2 173-181 YDHVFAEKI]					0.089	0.75	18
SSLAGSDIV [cdr2 316-324 SSLAGSDIV]					0.081	1.32	43
QHAKVYEQL [cdr2 79-87 QHAKVYEQL]					0.058	0.25	10
